Data on 13 molecules can be found in patent US20250277029A1, “CANNABINOID TYPE 1 RECEPTOR BINDING PROTEINS AND USES THEREOF” (AMGEN INC., priority 2022, published 2025).

Where a chain is given by its changes, count along the chain named.

T1: XCR1-SMALP (Homo sapiens, UniProt P46094)
T1 sequence (P46094 1-333): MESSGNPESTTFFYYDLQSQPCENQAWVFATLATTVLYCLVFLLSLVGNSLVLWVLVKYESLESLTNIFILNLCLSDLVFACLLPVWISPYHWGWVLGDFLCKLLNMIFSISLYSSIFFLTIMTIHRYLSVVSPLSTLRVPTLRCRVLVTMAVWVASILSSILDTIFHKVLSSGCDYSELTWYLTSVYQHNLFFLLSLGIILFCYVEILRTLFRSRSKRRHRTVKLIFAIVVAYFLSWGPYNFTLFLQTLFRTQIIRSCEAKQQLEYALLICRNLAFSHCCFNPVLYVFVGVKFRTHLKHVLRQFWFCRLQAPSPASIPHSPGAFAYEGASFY

B1: LIBC673952-1: further cognate affinity-matured variant; HV SEQ ID NO: 368, LV SEQ ID NO: 367; 52777 in YTE format (antibody, V domains shown)
VH: QVQLQESGPGLVKPSQTLSLTCTVSGGSIRRGGDYWSWIRQHPGKGLEWIGHVYYTGQTTYNPSFRGRVTISVNTYKNQFSLKLSSVTAADTAVYYCARDYDILTGYSYYYYGLDVWGQGTTVTVSS
VL: DIVMTQSPLSLPVTPGEPASISCRSSQSLLHRSGYNYLDWYLQKPGQSPQLLIYQGSNRASGVPDRFSGSGSGTDFTLKISRVEAEDVGVYYCRQARALPRTFGQGTKVEIKR
modifications: YTE Fc format
notes: 52777 in YTE format
B2: LIBC680574-1: further VK1 LC-optimized variant; HV SEQ ID NO: 460, LV SEQ ID NO: 459; 52778 in YTE format (antibody, V domains shown)
VH: B1 VH with S37A, Q58S, T60K, R66K, G67D, V69A, D100N, I103T, L114M
VL: DIQMTQSPSSLSASVGDRVTITCRASQSISSYLNWYQQKPGKAPKLLIYGARRLGSGVPSRFSGSGSGTDFTLTISSLQPEDFATYYCQQYSSLPVTFGGGTKVEIKR
modifications: YTE Fc format
notes: further VK1 LC-optimized variant; 52778 in YTE format
B3: LIBC527814-1: LC-swapped affinity-matured 10D10 variant; HV SEQ ID NO: 236, LV SEQ ID NO: 235 (antibody, V domains shown)
VH: B1 VH with S37G, Y55Q, Q58S, T60K, R66K, G67D, V69A, D100N, I103T, L114M
VL: DIQMTQSPSTLSASVGDRVTITCRASQSISNYLNWYQQKPGKAPKLLIYAASSLHSGVPSRFSGSGSGTDFTLTISSLQPEDFASYYCQQYQSYPLTFGQGTKVEIKR
B4: LIBC523661-1: cognate affinity-matured 10D10 variant; HV SEQ ID NO: 98, LV SEQ ID NO: 97 (antibody, V domains shown)
VH: B1 VH with V53I, T56E, Q58S, T60K, R66K, V69A, I103P, L104V, Y107H, L114M
VL: B1 VL with H31T, R32S, L38V, L99I
B5: LIBC527997-1: LC-swapped affinity-matured 10D10 variant; HV SEQ ID NO: 226, LV SEQ ID NO: 225 (antibody, V domains shown)
VH: QVQLQESGPGLVKPSQTLSLTCTVSGGSIRRGGDYWAWIRQHPGKGLEWIGHIYQTGSTNYNPRFKGRATISVNTYKNQFSLKLSSVTAADTAVYYCARNYDTLTGYSYYYYGMDVWGQGTTVTVSS
VL: B3 VL with T10S
B6: LIBC527919-1: LC-swapped affinity-matured 10D10 variant; HV SEQ ID NO: 252, LV SEQ ID NO: 251 (antibody, V domains shown)
VH: B5 VH with I53V, N60A, R64N, G67D, T103A, T105S
VL: B2 VL with M4L, S30I, G50A, R52S, R53S, G55R, S93N, L94Y, V96L, K103R
B7: LIBC680812-1: further VK1 LC-optimized affinity-matured variant (antibody, V domains shown)
VH: B5 VH with A37G, I53V, N60K, R64S, G67D
VL: B2 VL with G50S, G55S, S92R, L94Y, V96I
B8: LIBC681593-1: further VK1 LC-optimized affinity-matured variant (antibody, V domains shown)
VH: B5 VH
VL: B2 VL with G50N, S92R, L94S
B9: LIBC680800-1: further VK1 LC-optimized affinity-matured variant (antibody, V domains shown)
VH: B5 VH
VL: B2 VL with G50S, R53A, G55S, S92R, S93K, L94F, V96L
B10: LIBC680562-1: further VK1 LC-optimized affinity-matured variant (antibody, V domains shown)
VH: B5 VH
VL: B2 VL with G50S, G55S, S92A, S93K, L94S, V96I
B11: LIBC674200-1: further cognate affinity-matured variant (antibody, V domains shown)
VH: QVQLQESGPGLVKPSQTLSLTCTVSGGSIRRGGDYWSWIRQHPGKGLEWIGHVYYTGQTAYNPNFRNRVRISVNTYKNQFSLKLSSVTAADTAVYYCARGYDVSGYSYYYYGMDVWGQGTTVTVSS
VL: B1 VL with Q55L, D65G, R94M, A96S, R97L, A98Q, L99T
B12: LIBC674229-1: further cognate affinity-matured variant (antibody, V domains shown)
VH: B11 VH with V53I, Y55Q, A60K, N64S, R66K, N67G
VL: B1 VL with R94M, A96S, R97L, A98Q, L99T
B13: LIBC674090-1: further cognate affinity-matured variant (antibody, V domains shown)
VH: B11 VH with V53I, T56A, Q58S, N67G, V103T, M113L
VL: B1 VL with R94M, A96S, R97L, A98Q, L99T

One assay concerns diet-induced obese (DIO) huCB1 knock in (KI) mice. Kind of assay: Diet-induced obese huCB1 knock in mice, 30 mg/kg QW for 35 days: body weight, food intake, fat mass, liver weight. Type of assay: in vivo, mouse. Conditions: YTE format. How it is done: The further affinity matured antibodies LIBC673952 (52777) and LIBC680574 (52778) in YTE format (Dall'Acqua et al., The Journal of Immunology, 169: 5171-5180 (2002)) was scaled up for testing in diet-induced obese (DIO) transgenic mice with huCB1 knocked in. […] The antibodies (52777, 52778, and 37940) and a control antibody (huIgG control) were administered to the mice at 30 mg/kg QW for 35 days, and the body weight and food intake of the animals were measured every 3-4 days and the results are shown in FIGS. 10A and 10B.
For the molecule B1, the “average daily food intake” value is given as “did not change significantly” and the “body weight of the animals” value is given as “reduced body weight”.

As to B2, the “average daily food intake” value is “did not change significantly” and the “body weight of the animals” value is “reduced body weight”.

A further assay concerns CB1-nanodisc. Nature of the assay: Octet affinity assay with CB1-nanodisc. It counts as binding, human. The conditions noted are these: 1:1 Langmuir model.
Protocol: Affinity assay using Octet. The Octet@HTX (Sartorius, Germany) instrument was used to determine affinities of anti-CB1 antibodies. Prior to experiment, Streptavidin (SA) biosensors (ForteBio, #18-5021) were pre-hydrated for 10 min in Octet assay buffer containing 10 mM Tris (Fisher, #BP152-1), 150 mM NaCl (Fisher, #5271-10), 1 mM CaCl2) (Fisher, #BP510-500), 0.1 mg/mL BSA (BioShop, #ALB001.1), and 0.1% Triton-X 100 (Calbiochem, #9410-OP), pH7.4. SA biosensors were loaded with biotinylated anti-human Fc antibody (Invitrogen, #A18827) followed by one baseline step of 60 s in Octet assay buffer. Anti-CB1 antibodies were prepared in Octet assay buffer and captured by the anti-human Fc antibody prior to being submerged in wells containing different concentrations of CB1-nanodisc (#CB1-008, in-house) for 5 min, followed by 10 min dissociation. […] SA biosensors were used once without regeneration. For data evaluation, ForteBio Data Analysis v11.0 software was used. The kinetic rate constants, association rate constant (ka, M−1s−1), dissociation rate constant (kd, s−1), and the equilibrium rate constant (KD, M) were determined by using a 1:1 Langmuir model.
On to B3, for which the “Octet (nanodisc) k off” value was 0.00198 s⁻¹ and the “Octet (nanodisc) k on” value worked out at 56600 M⁻¹ s⁻¹.

For B4, the “Octet (nanodisc) k off” value was 0.00275 s⁻¹ and the “Octet (nanodisc) k on” value was 35700 M⁻¹ s⁻¹.

On to B5, for which the “Octet (nanodisc) k off” value was found to be 0.00136 s⁻¹ and the “Octet (nanodisc) k on” value was 51800 M⁻¹ s⁻¹.

Turning to B6, the “Octet (nanodisc) k off” value stood at 0.00339 s⁻¹ and the “Octet (nanodisc) k on” value came to 56200 M⁻¹ s⁻¹.

The target in a further assay is T1, XCR1-SMALP. Nature of the assay: Yeast-display non-specific binding to irrelevant XCR1-SMALP. Conditions: 25 nM; fold change compared to LIBC528116 (Fab), after background subtraction. An excerpt: All eighteen cognate variants met the stringent binding improvement threshold against huCB1I-GFP-SMALP and had minimal binding to irrelevant XCR1-SMALP and empty-ND (Table 32). […] For LIBC674043-1 and LIBC674200-1, VH R149S and VL G76D germline reversion mutations were also included in the panel of IgG1 SEFL2 mAbs produced for functional testing.
Consider B7, for which the “25 nM XCR1-SMALP-GFP, relative binding fold change” value is recorded as 0.59.

As to B2, the “25 nM XCR1-SMALP-GFP, relative binding fold change” value was 0.56.

Turning to B8, the “25 nM XCR1-SMALP-GFP, relative binding fold change” value was 0.72.

With B9, the “25 nM XCR1-SMALP-GFP, relative binding fold change” value turned out to be 0.47.

Take B10: the “25 nM XCR1-SMALP-GFP, relative binding fold change” value is 0.64.

Staying with this assay, now noted: 50 nM; fold change compared to LIBC523797-1(Fab), after background subtraction.
For the molecule B1, the “50 nM XCR1 SMALP, relative binding fold change” value came to 0.59.

Take B11: the “50 nM XCR1 SMALP, relative binding fold change” value is on record as 0.79.

Consider B12, for which the “50 nM XCR1 SMALP, relative binding fold change” value is 0.80.

Turning to B13, the “50 nM XCR1 SMALP, relative binding fold change” value stood at 0.74.
